This is an account of results in paper PMC6994475.

Holding throughout (assay): EMSA
Common to all, as to conditions: EMSA: 10 nM 6-FAM oligo, 50 mM HEPES pH 7.5, 250 mM NaCl, 1 mM DTT, 2.5 mM EDTA, 10% glycerol, on ice 10 min, 8% native PAGE; sumo-rA3G after heavy RNase A/T1 …
On the technique in general: In EMSA bound probe runs differently from free probe, usually more slowly.

The test system of data set [1] is rA3G rM15 (Macaca mulatta).
For data set [2], the system named is rA3G R24T (Macaca mulatta).
The test system of data set [3] is rA3G E/Q (Macaca mulatta).
In data set [4] the test system is rA3G rM11 (Macaca mulatta).
The test system of data set [5] is rA3G rM9 (Macaca mulatta).
In data set [6] the test system is rA3G WT (parental construct, R8 K128D) (Macaca mulatta).
The test system of data set [7] is rA3G rM14 (Macaca mulatta).
For data set [8], the system named is rA3G rM12 (Macaca mulatta).
In data set [9] the test system is rA3G rM13 (Macaca mulatta).
Data set [10] has as its system rA3G rM10 (Macaca mulatta).

By Kd is commonly meant the equilibrium constant for the complex coming apart. On to 50 nt ssRNA, for which the Kd in data set [1] is 21 nM; in data set [2] it was 21 nM; in data set [3] it was 19 nM; in data set [4] it was 21 nM; in data set [5], 20 nM; in [6], 22 nM. The equilibrium dissociation constant (Kd) worked out at 15 nM in [7], 52 nM in data set [8], 43 nM in [9] and 24 nM in data set [10].

In the case of 50 nt ssDNA, the Kd in data set [1] was 71 nM; in [2] it was 51 nM; in data set [3], 10 nM; in data set [4], 89 nM; in [5], 74 nM; in [6] it was 24 nM. In addition, the Kd in data set [7] stood at 102 nM; in data set [8], 188 nM; in data set [9], 155 nM; in [10], 53 nM.
